Reference: the Human Domainome abundance scans (Beltran et al. 2025)
± gives the uncertainty stated by the source.

B1: Peripheral plasma membrane protein CASK, residues 488 to 569; numbered along this chain, O14936 (parent)
chain: VRLVQFQKNTDEPMGITLKMNELNHCIVARIMHGGMIHRQGTLHVGDEIREINGISVANQTVEQLQKMLREMRGSITFKIVP

Variants of: B1
Test: abundance fitness (aPCA) (normalised: wild type 0, dead -1); higher = more abundant; growth selection in yeast, the domain comes from the species named
Conditions: Homo sapiens

Row | Variant | abundance fitness
1 | R2Y | -0.002 ± 0.065
2 | R2A | -0.149 ± 0.03
3 | R2L | -0.159 ± 0.036
4 | R73N | 0.038 ± 0.058
5 | R73T | -0.003 ± 0.031
6 | R73M | -0.077 ± 0.032
7 | Q40F | -0.103 ± 0.041
8 | Q40T | -0.067 ± 0.026
9 | Q40G | -0.097 ± 0.023
10 | R39E | -0.052 ± 0.026
11 | R39D | -0.096 ± 0.034
12 | R39V | -0.197 ± 0.022
13 | R39Y | -0.35 ± 0.048
14 | T61V | -0.329 ± 0.025
15 | T61E | -0.037 ± 0.037
16 | T61H | -0.074 ± 0.041
17 | T77Q | -0.04 ± 0.039
18 | T77G | -0.248 ± 0.047
19 | V81C | -0.036 ± 0.048
20 | L65S | -0.183 ± 0.031
21 | L65V | 0.025 ± 0.025
22 | L65E | -0.889 ± 0.067
23 | L65G | -0.817 ± 0.047
24 | F78G | -0.886 ± 0.1

Row | Variant | abundance fitness
25 | F78T | -0.677 ± 0.066
26 | F78W | -0.484 ± 0.074
27 | F78H | -0.95 ± 0.16
28 | F78I | -0.045 ± 0.038
29 | G74L | -0.842 ± 0.044
30 | G74Y | -0.521 ± 0.068
31 | G74M | -0.806 ± 0.077
32 | G74N | -0.243 ± 0.056
33 | G74T | -0.4 ± 0.04
34 | G74R | -0.467 ± 0.027
35 | G74V | -0.716 ± 0.036
36 | E22R | 0.001 ± 0.025
37 | E22P | -0.03 ± 0.04
38 | E22C | -0.089 ± 0.045
39 | T42F | -0.021 ± 0.037
40 | T42M | 0.01 ± 0.032
41 | T42E | 0.012 ± 0.026
42 | H33D | -0.011 ± 0.044
43 | H33I | -0.006 ± 0.052
44 | H33T | 0.005 ± 0.035
45 | H33Y | -0.107 ± 0.053
46 | H33W | -0.16 ± 0.034
47 | H33M | -0.026 ± 0.036
48 | H44L | -0.142 ± 0.025

Row | Variant | abundance fitness
49 | H44C | -0.012 ± 0.033
50 | H44A | -0.006 ± 0.023
51 | A58P | -0.327 ± 0.04
52 | A58V | -0.025 ± 0.023
53 | A58E | 0.017 ± 0.027
54 | A58S | -0.035 ± 0.028
55 | M32R | 0.003 ± 0.028
56 | M32K | 0.042 ± 0.039
57 | M32L | -0.083 ± 0.038
58 | M32F | 0.086 ± 0.26
59 | P13G | -0.024 ± 0.054
60 | P13Q | -0.183 ± 0.078
61 | P13F | -0.126 ± 0.059
62 | P13M | -0.1 ± 0.098
63 | P13N | -0.021 ± 0.042
64 | P13C | 0.024 ± 0.06
65 | P13I | -0.154 ± 0.054
66 | N24S | -0.045 ± 0.023
67 | N24D | -0.024 ± 0.033
68 | N24E | -0.065 ± 0.026
69 | N24M | -0.204 ± 0.03
70 | N24A | -0.14 ± 0.023
71 | E71K | 0.004 ± 0.037
72 | E71I | -0.036 ± 0.061

Row | Variant | abundance fitness
73 | E71Q | -0.051 ± 0.035
74 | E71M | -0.053 ± 0.034
75 | E71T | -0.036 ± 0.034
76 | E71V | -0.034 ± 0.025
77 | L18M | -0.128 ± 0.05
78 | L18P | -1.2 ± 0.22
79 | L18H | -0.877 ± 0.28
80 | K8V | -0.007 ± 0.023
81 | K8E | -0.505 ± 0.036
82 | K8N | -0.098 ± 0.043
83 | K8S | -0.169 ± 0.029
84 | K8C | -0.326 ± 0.038
85 | M20C | -0.19 ± 0.047
86 | M20R | -0.034 ± 0.024
87 | M20N | -0.16 ± 0.076
88 | M20G | -0.453 ± 0.031
89 | M20K | 0.034 ± 0.029
90 | M20F | 0.026 ± 0.059
91 | M20P | -0.325 ± 0.046
92 | M20I | -0.036 ± 0.053
93 | Q64G | -0.064 ± 0.022
94 | Q64V | -0.061 ± 0.021
95 | Q64K | -0.018 ± 0.029
96 | Q64E | -0.008 ± 0.026

Row | Variant | abundance fitness
97 | S75E | -0.029 ± 0.03
98 | S75V | 0.011 ± 0.025
99 | S75Q | 0.019 ± 0.034
100 | S75H | -0.047 ± 0.053
101 | S75N | -0.023 ± 0.047
102 | S75R | -0.011 ± 0.023
103 | S75T | 0.023 ± 0.033
104 | V57E | -0.965 ± 0.048
105 | V57C | -0.046 ± 0.031
106 | V57F | -0.42 ± 0.053
107 | Q5V | 0.029 ± 0.023
108 | Q5T | 0.117 ± 0.025
109 | T10C | 0.066 ± 0.041
110 | T10L | -0.05 ± 0.033
111 | T10W | -0.086 ± 0.031
112 | M36N | -0.07 ± 0.08
113 | M36I | 0.029 ± 0.061
114 | M36F | 0.119 ± 0.082
115 | M36D | -0.044 ± 0.062
116 | Q7C | 0.021 ± 0.035
117 | Q7Y | 0.021 ± 0.043
118 | Q7N | 0.02 ± 0.043
119 | L43H | -0.97 ± 0.16
120 | L43N | -0.906 ± 0.15

Row | Variant | abundance fitness
121 | L43G | -0.985 ± 0.043
122 | I37A | 0.019 ± 0.025
123 | I37Q | -0.43 ± 0.045
124 | I37W | -0.333 ± 0.03
125 | I37G | -0.276 ± 0.023
126 | I37C | -0.024 ± 0.034
127 | Q66M | -0.012 ± 0.03
128 | Q66P | -0.521 ± 0.034
129 | Q66W | -0.228 ± 0.027
130 | Q66F | -0.236 ± 0.049
131 | V1F | -0.026 ± 0.049
132 | V1I | 0.085 ± 0.042
133 | V1Q | -0.189 ± 0.09
134 | G15L | -0.62 ± 0.044
135 | G15K | -0.538 ± 0.063
136 | G15E | -0.201 ± 0.051
137 | G15S | -0.493 ± 0.035
138 | I55H | -0.04 ± 0.041
139 | I55N | -0.113 ± 0.05
140 | I55L | -0.041 ± 0.025
141 | I55T | -0.003 ± 0.028
142 | I55S | -0.033 ± 0.026
143 | I55D | -0.035 ± 0.039
144 | I55R | 0.007 ± 0.02

Row | Variant | abundance fitness
145 | I55P | -1.05 ± 0.089
146 | A29W | -0.068 ± 0.037
147 | A29F | -0.362 ± 0.13
148 | A29R | -0.097 ± 0.03
149 | A29N | -0.201 ± 0.087
150 | A29G | -0.08 ± 0.027
151 | A29H | -0.013 ± 0.078
152 | I52L | -0.115 ± 0.19
153 | Q60D | -0.154 ± 0.036
154 | Q60Y | -0.022 ± 0.045
155 | Q60N | 0.005 ± 0.043
156 | Q60S | -0.042 ± 0.025
157 | Q60T | -0.09 ± 0.029
158 | Q60A | -0.045 ± 0.024
159 | Q60W | -0.063 ± 0.027
160 | Q60R | -0.007 ± 0.021
161 | E48A | -0.105 ± 0.033
162 | E48N | -0.326 ± 0.082
163 | E48R | -0.037 ± 0.028
164 | E48M | -0.158 ± 0.049
165 | E48F | -0.362 ± 0.15
166 | E48S | -0.071 ± 0.04
167 | R70F | 0.002 ± 0.042
